From article PMC11417369, “DNA sequence and chromatin differentiate sequence-specific transcription factor binding in the human malaria parasite Plasmodium falciparum”
Residue numbers refer to the chain shown, from its start.

B1: GTGCAC_negctrl_site432 (dsDNA)
DNA 1: AAAAAAATAATATAAATAATGAAAAGATATAAATAA
DNA 2: TTATTTATATCTTTTCATTATTTATATTATTTTTTT
B2: GTGCAC_negctrl_site225 (dsDNA)
DNA 1: AAATGAATAAAATTTATTTATAAAAGAAAAATCACA
DNA 2: TGTGATTTTTCTTTTATAAATAAATTTTATTCATTT
B3: GTGCAC_negctrl_site469 (dsDNA)
DNA 1: AACAAAGGATTTATATATACATACATACATACATAA
DNA 2: TTATGTATGTATGTATGTATATATAAATCCTTTGTT
B4: GTGCAC_negctrl_site374 (dsDNA)
DNA 1: TTTCCGGTAATATGGAGATATATGTGGGTTTTTTTT
DNA 2: AAAAAAAACCCACATATATCTCCATATTACCGGAAA
B5: GTGCAC_negctrl_site442 (dsDNA)
DNA 1: ATAGTACAACAGGTTCTTGACAAACAATATGAATGT
DNA 2: ACATTCATATTGTTTGTCAAGAACCTGTTGTACTAT
B6: GTGCAC_negctrl_site726 (dsDNA)
DNA 1: GAAAACATTAAAAGTTAGATCATAAGAAAAGAATAT
DNA 2: ATATTCTTTTCTTATGATCTAACTTTTAATGTTTTC
B7: GTGCAC_negctrl_site418 (dsDNA)
DNA 1: TATTGACAAAAAAAAAAAAGGTAAAAAAGAAAGAAA
DNA 2: TTTCTTTCTTTTTTACCTTTTTTTTTTTTGTCAATA
B8: GTGCAC_negctrl_site311 (dsDNA)
DNA 1: ATAAAATACCCTGATCTATTACATATTATATTCTGC
DNA 2: GCAGAATATAATATGTAATAGATCAGGGTATTTTAT
B9: GTGCAC_negctrl_site125 (dsDNA)
DNA 1: AAAAATTATAAAAAACAAATATTAAATAATTATTAA
DNA 2: TTAATAATTATTTAATATTTGTTTTTTATAATTTTT
B10: GTGCAC_negctrl_site271 (dsDNA)
DNA 1: TTGTTAATAAATAAATAAATAAATATATTTATATAT
DNA 2: ATATATAAATATATTTATTTATTTATTTATTAACAA
B11: GTGCAC_negctrl_site372 (dsDNA)
DNA 1: AAAAAAATCACATAAAATACTTTATTTTATATTATA
DNA 2: TATAATATAAAATAAAGTATTTTATGTGATTTTTTT
B12: GTGCAC_negctrl_site68 (dsDNA)
DNA 1: GCAAAATAACAATGTTACACTTATAAAATTGAGGCA
DNA 2: TGCCTCAATTTTATAAGTGTAACATTGTTATTTTGC
B13: GTGCAC_negctrl_site494 (dsDNA)
DNA 1: AAGTTTAAGAAATAATTCATATTTACTTCCATCCTC
DNA 2: GAGGATGGAAGTAAATATGAATTATTTCTTAAACTT
B14: GTGCAC_negctrl_site41 (dsDNA)
DNA 1: TCTTGATACAAACATTTAAATAAATAAATAAAAAAA
DNA 2: TTTTTTTATTTATTTATTTAAATGTTTGTATCAAGA
B15: GTGCAC_negctrl_site497 (dsDNA)
DNA 1: TATATAATATATATTTTATATTTGTAATAATTTTTT
DNA 2: AAAAAATTATTACAAATATAAAATATATATTATATA
B16: GTGCAC_negctrl_site30 (dsDNA)
DNA 1: TCTTAAAAGGGGAATGGAATGGAGAAAATGAAATAA
DNA 2: TTATTTCATTTTCTCCATTCCATTCCCCTTTTAAGA
B17: GTGCAC_negctrl_site454 (dsDNA)
DNA 1: AAAAAAAAAGTATATATATATTTAAGGAATTCTCTC
DNA 2: GAGAGAATTCCTTAAATATATATATACTTTTTTTTT
B18: GTGCAC_negctrl_site517 (dsDNA)
DNA 1: TTTTGAAGTAACAAATAAATAAATAAATATATAAAA
DNA 2: TTTTATATATTTATTTATTTATTTGTTACTTCAAAA
B19: GTGCAC_negctrl_site394 (dsDNA)
DNA 1: AAAAAAAATTAAATAAATAAATATACACATATATAT
DNA 2: ATATATATGTGTATATTTATTTATTTAATTTTTTTT
B20: GTGCAC_negctrl_site606 (dsDNA)
DNA 1: TTTAATTTTACATGAGAAACATATTACAATAAAATA
DNA 2: TATTTTATTGTAATATGTTTCTCATGTAAAATTAAA
B21: GTGCAC_negctrl_site589 (dsDNA)
DNA 1: TTCTTTAATAAAATAATCTCAAAGAAAATTTTTTCT
DNA 2: AGAAAAAATTTTCTTTGAGATTATTTTATTAAAGAA
B22: GTGCAC_negctrl_site543 (dsDNA)
DNA 1: AAATGTGTAAATATAATTAGTTTCACAAAACAAATA
DNA 2: TATTTGTTTTGTGAAACTAATTATATTTACACATTT
B23: GTGCAC_negctrl_site22 (dsDNA)
DNA 1: AATATATTGTTTCCTGATATTAAATTCAATTTAATG
DNA 2: CATTAAATTGAATTTAATATCAGGAAACAATATATT
B24: GTGCAC_negctrl_site76 (dsDNA)
DNA 1: B23 DNA 1 with T8G, G9C, C14G, G16T
DNA 2: B23 DNA 2 with C21A, G23C, C28G, A29C
B25: GTGCAC_negctrl_site534 (dsDNA)
DNA 1: TTTTTTATCTAATATTTTATAATTTTCATAAATTTG
DNA 2: CAAATTTATGAAAATTATAAAATATTAGATAAAAAA
B26: GTGCAC_negctrl_site409 (dsDNA)
DNA 1: ATTGAGGCTGGTTATATAATAATTTTATTATTTTAG
DNA 2: CTAAAATAATAAAATTATTATATAACCAGCCTCAAT
B27: GTGCAC_negctrl_site247 (dsDNA)
DNA 1: TGTTTATAAATATAAAAAAATATATATATATATTAT
DNA 2: ATAATATATATATATATTTTTTTATATTTATAAACA
B28: GTGCAC_negctrl_site492 (dsDNA)
DNA 1: AAAACCTAAAAGTCTTAAATTTTAAATATACCTACA
DNA 2: TGTAGGTATATTTAAAATTTAAGACTTTTAGGTTTT
B29: GTGCAC_negctrl_site611 (dsDNA)
DNA 1: ATCGAAATTTTAGAATATATATGATGTTACTTAAGT
DNA 2: ACTTAAGTAACATCATATATATTCTAAAATTTCGAT
B30: GTGCAC_negctrl_site203 (dsDNA)
DNA 1: TTGATGTATACAATGTAGATTATTTAATATTTCAAT
DNA 2: ATTGAAATATTAAATAATCTACATTGTATACATCAA
B31: GTGCAC_negctrl_site172 (dsDNA)
DNA 1: TATTTTTTAAGTGAACATTTGTTATTATATTCTTAT
DNA 2: ATAAGAATATAATAACAAATGTTCACTTAAAAAATA
B32: GTGCAC_negctrl_site197 (dsDNA)
DNA 1: TTTTTAAAAAAGATAAGCGAAAGAATTAATTTTTAA
DNA 2: TTAAAAATTAATTCTTTCGCTTATCTTTTTTAAAAA

Molecular target: AP2-I D3 (Plasmodium falciparum, UniProt Q8IJW6 910-1027)
Test: gcPBM; about 25 ug protein; PBS, 1% milk, 0.2 mg/ml BSA, salmon testes DNA, 0.03% Triton X-100
Details: tags: N-terminal GST (pGEX-4T-1), kept; label: surface-attached array probe

Binder | binding signal
B1 | 7.13 ln median PBM intensity, better of two orientations
B2 | 7.04 ln median PBM intensity, better of two orientations
B3 | 7.14 ln median PBM intensity, better of two orientations
B4 | 7.18 ln median PBM intensity, better of two orientations
B5 | 7.13 ln median PBM intensity, better of two orientations
B6 | 7.04 ln median PBM intensity, better of two orientations
B7 | 7.05 ln median PBM intensity, better of two orientations
B8 | 7.03 ln median PBM intensity, better of two orientations
B9 | 7.08 ln median PBM intensity, better of two orientations
B10 | 7.14 ln median PBM intensity, better of two orientations
B11 | 7.11 ln median PBM intensity, better of two orientations
B12 | 7.14 ln median PBM intensity, better of two orientations
B13 | 7.03 ln median PBM intensity, better of two orientations
B14 | 7.16 ln median PBM intensity, better of two orientations
B15 | 7.15 ln median PBM intensity, better of two orientations
B16 | 7.11 ln median PBM intensity, better of two orientations

Binder | binding signal
B17 | 7.18 ln median PBM intensity, better of two orientations
B18 | 7.16 ln median PBM intensity, better of two orientations
B19 | 7.11 ln median PBM intensity, better of two orientations
B20 | 7.18 ln median PBM intensity, better of two orientations
B21 | 7.02 ln median PBM intensity, better of two orientations
B22 | 7.01 ln median PBM intensity, better of two orientations
B23 | 7.11 ln median PBM intensity, better of two orientations
B24 | 7.14 ln median PBM intensity, better of two orientations
B25 | 7.06 ln median PBM intensity, better of two orientations
B26 | 7.11 ln median PBM intensity, better of two orientations
B27 | 7.14 ln median PBM intensity, better of two orientations
B28 | 7.08 ln median PBM intensity, better of two orientations
B29 | 7.04 ln median PBM intensity, better of two orientations
B30 | 7.03 ln median PBM intensity, better of two orientations
B31 | 7.06 ln median PBM intensity, better of two orientations
B32 | 7.16 ln median PBM intensity, better of two orientations
